Reference: patent US20170240645A1 (Genentech, published 2017)

Tests used:
[1] = target: T1, full-length human PMEL17 with an N-terminal gD tag (human, UniProt P40967 25-661); test: immunoblot of cell lysates
T1 construct: it is left out here; also called full-length PMEL17; N-terminal gD tagged PMEL17 (human)
T1 sequence: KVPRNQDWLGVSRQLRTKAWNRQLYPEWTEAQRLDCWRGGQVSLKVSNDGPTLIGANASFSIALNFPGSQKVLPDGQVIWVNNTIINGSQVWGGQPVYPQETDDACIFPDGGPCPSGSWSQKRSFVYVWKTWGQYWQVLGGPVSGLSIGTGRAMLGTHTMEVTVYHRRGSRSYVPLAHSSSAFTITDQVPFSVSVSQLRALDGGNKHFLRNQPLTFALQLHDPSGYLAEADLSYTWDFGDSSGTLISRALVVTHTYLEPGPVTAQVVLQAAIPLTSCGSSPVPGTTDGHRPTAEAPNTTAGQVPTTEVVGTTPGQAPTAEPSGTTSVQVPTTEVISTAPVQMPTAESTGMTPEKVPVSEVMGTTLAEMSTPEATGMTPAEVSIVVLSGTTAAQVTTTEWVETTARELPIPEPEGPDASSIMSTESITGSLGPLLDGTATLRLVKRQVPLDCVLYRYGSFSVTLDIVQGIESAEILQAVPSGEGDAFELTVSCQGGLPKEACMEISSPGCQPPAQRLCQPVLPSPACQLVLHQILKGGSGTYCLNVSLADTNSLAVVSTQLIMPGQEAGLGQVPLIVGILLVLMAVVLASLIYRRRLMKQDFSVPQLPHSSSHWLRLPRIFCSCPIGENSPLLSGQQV

[2] = target: T2, PMEL17 25-65 with an N-terminal gD tag and a C-terminal GPI anchor (human, UniProt P40967 25-65, not fully specified; C-terminal GPI anchor); test: FACS on transiently transfected 293 cells
T2 construct: C-terminal deletion, transiently expressed on 293 cells
T2 chain: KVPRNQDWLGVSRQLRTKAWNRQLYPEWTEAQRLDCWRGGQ
From the text: (§1) In addition, C-terminal deletions with an N-terminal gD tag and a C-terminal GPI anchor were transiently transfected into 293 cells and analyzed for antibody binding by FACS. The C-terminal deletions tested included PMEL172₅₋₁₂₅, PMEL17₂₅₋₁₀₅, PMEL17₂₅₋₈₅, PMEL17₂₅₋₆₅, and PMEL17₂₅₋₄₅.

[3] = target: T3, PMEL17 25-85 with an N-terminal gD tag and a C-terminal GPI anchor (human, UniProt P40967 25-85, C-terminal GPI anchor); test: FACS on transiently transfected 293 cells
T3 construct: C-terminal deletion, transiently expressed on 293 cells
T3 sequence: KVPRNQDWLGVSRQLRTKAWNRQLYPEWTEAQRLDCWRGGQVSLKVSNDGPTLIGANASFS
From the text: as §1

[4] = target: T4, PMEL17 25-105 with an N-terminal gD tag and a C-terminal GPI anchor (human, UniProt P40967 25-105, C-terminal GPI anchor); test: FACS on transiently transfected 293 cells
T4 construct: C-terminal deletion, transiently expressed on 293 cells
T4 sequence: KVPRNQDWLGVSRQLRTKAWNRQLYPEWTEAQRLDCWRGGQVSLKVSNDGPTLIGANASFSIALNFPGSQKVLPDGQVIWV
From the text: as §1

[5] = target: T5, PMEL17 25-125 with an N-terminal gD tag and a C-terminal GPI anchor (human, UniProt P40967 25-125, C-terminal GPI anchor); test: FACS on transiently transfected 293 cells
T5 construct: C-terminal deletion, transiently expressed on 293 cells
T5 sequence: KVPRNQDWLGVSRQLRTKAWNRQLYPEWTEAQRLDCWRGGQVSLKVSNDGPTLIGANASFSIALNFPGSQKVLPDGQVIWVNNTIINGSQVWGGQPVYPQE
From the text: as §1

human PMEL17 = target: T6, human PMEL17 (human, UniProt P40967 25-661); test: FACS on live cells, hybridoma supernatant
T6 construct: Untagged PMEL17 as it occurs on melanoma cell lines, normal human melanocytes, PC3 cells stably expressing PMEL17 cDNA, and in human tissue sections; also called Melanocyte protein PMEL17
T6 sequence: T1 sequence
From the text: After 10-14 days, the supernatants were harvested and screened by ELISA and FACS. For FACS analysis, melanoma cell lines SK-MEL-23 (provided by Paul Robbins, Center for Cancer Research, Tumor Immunology Section), 1300mel (provided by Paul Robbins, Center for Cancer Research, Tumor Immunology Section), SKMELS (ATCC HTB-70), and UACC257 (National Cancer Institute), normal melanocytes (Invitrogen, Carlsbad, Calif.), and the prostate cancer cell line PC3 stably expressing human PMEL17 were contacted with antibody. One antibody from the PMEL17-immunized mice, designated 17A9, reacted strongly by fluorescent activated cell sorting (FACS) with live melanoma cells, normal human melanocytes and a PC3 cell line stably expressing PMEL17 cDNA, but not the parental PC3 cell line. Another antibody, 77E6, obtained from the DNA-immunized mice, was also positive by FACS, although 77E6 reacted with live cell lines expressing PMEL17 somewhat inconsistently and more weakly than 17A9.

binding result [1]: binds
binding result [2]: no binding
binding result [3]: no binding
binding result [4]: no binding
binding result [5]: binds
binding result (human PMEL17): binds
B1: 17A9 (antibody, V domains shown)
VH: EVQLQQSGPELVKPGASMKISCKSSGYSFTRYTMNWVKQSHGKNLEWIGVINPYNGGTVYNQKFKGKATLTVDKSSSTAYMELLSLTSEDSAVYYCARTDYDGYAMDYWGQGTSVTVSS
VL: DVQITQSPSYLAASPGETITINCRATKSISKYLAWYQEQPGKTNNLLIYSGSTLQSGIPSRFSGSGSGTDFTLTISSLEPEDFAMYYCQQHNEYPYTFGSGTKLEIK
notes: Mouse monoclonal antibody from a hybridoma (mice immunized with PMEL17 ECD-Fc); also called anti-PMEL17 antibody 17A9
